# Columns and labels:
# [1] = system: MPC tumors; type: in vivo, mouse; conditions: mouse, in vivo
# Experimental: (§1) During anesthesia, animals were continuously warmed at 37°C. […] Animals were sacrificed using CO2 inhalation and cervical dislocation.
# (§2) 107 (30%), muscle (0%), kidneys (25%), and liver (35%).
# (§3) 116 attenuation. Images were post-processed and analyzed using ROVER (ABX). Three-
# 118 kidneys (15%), and liver (25%). […]
# [2] = system: MTT tumors; assay: SPECT imaging of [177Lu]Lu-DOTA-TATE uptake in MTT allograft mice; conditions: mouse, in vivo
# Experimental: as §1
# (§4) Small animal single-photon emission computed tomography (SPECT) was initiated 22‒26 hours after radiotracer injection using the nanoSPECT/CT scanner (Mediso Medical Imaging Systems). […] Activity concentration in tissues was determined and reported as AV mean (VOI-averaged volume activity AV tissue 24h, MBq/mL). Details on quantitative SPECT image analysis are provided in Supplemental Information 1.5.
# as §2, §3
# (§5) 118 kidneys (15%), and liver (25%).
# (§6) 119 1.6 Sstr2 promoter methylation analysis
# (§7) 122 Bisulfite Kit (Qiagen, Hilden, Germany). Bisulfite-converted DNA was amplified using a
# (§8) 125 Switzerland). Electropherograms were compared to PCR products amplified from bisulfite-
# (§9) 127 an unmethylated 900bp-DNA fragment. The latter was generated by amplification of genomic
# (§10) 129 of primers are provided in (Table S 2).
# [3] = system: MPC tumors; assay: SPECT imaging of [177Lu]Lu-DOTA-TATE uptake in MPC allograft mice; conditions: mouse, in vivo
# Experimental: as §1, §4, §2, §3, §5, §6, §7
# Amplicon size (195bp) was confirmed
# as §8, §9, §10
# [4] = system: midgut neuroendocrine liver metastases; conditions: after a short course of vorinostat; cited from earlier work
structure (smiles),measurement,setting,value
"C[C@@H](O)[C@H](NC(=O)[C@@H]1CSSC[C@H](NC(=O)[C@@H](Cc2ccccc2)NC(=O)CN2CCN(CC(=O)O)CCN(CC(=O)O)CCN(CC(=O)O)CC2)C(=O)N[C@@H](Cc2ccc(O)cc2)C(=O)N[C@H](Cc2c[nH]c3ccccc23)C(=O)N[C@@H](CCCCN)C(=O)N[C@@H]([C@@H](C)O)C(=O)N1)C(=O)O [[^64Cu]Cu-DOTA-TATE, metal not drawn]","SUVmean plateau, MPC compared to MTT allografts",[1],14 fold
"C[C@@H](O)[C@H](NC(=O)[C@@H]1CSSC[C@H](NC(=O)[C@@H](Cc2ccccc2)NC(=O)CN2CCN(CC(=O)O)CCN(CC(=O)O)CCN(CC(=O)O)CC2)C(=O)N[C@@H](Cc2ccc(O)cc2)C(=O)N[C@H](Cc2c[nH]c3ccccc23)C(=O)N[C@@H](CCCCN)C(=O)N[C@@H]([C@@H](C)O)C(=O)N1)C(=O)O [[^177Lu]Lu-DOTA-TATE, metal not drawn]","AV max 24h tumor, sub-cohort",[2],1.19 ± 0.10 MBq/mL
same,mean tumor AV 24 h (single animal shown in image),[2],0.59 MBq/mL
same,"AV max 24h tumor, sub-cohort",[3],9.52 ± 0.58 MBq/mL
same,"AV mean 24h, MPC compared to MTT allograft mice",[3],8 fold
same,mean tumor AV 24 h (single animal shown in image),[3],4.14 MBq/mL
O=C(CCCCCCC(=O)Nc1ccccc1)NO [vorinostat],increase in [68Ga]Ga-DOTA-TATE uptake in tumors,[4],10%
